The results in this text go back to PMC10602870.

Experiment in all cases: native gel or EMSA; binding titrations of 80N0 nucleosomes with Chd1 in the presence of AMP-PNP and salmon sperm competitor DNA; observed (apparent) Kd; read from gels (Supplementary Figure S6)
In assay [1] the target is 80N0 Widom 601 nucleosome with pairs of abasic sites at both SHL2.7 sites (SHL+/-2.7, 27 bp from the dyad), Xenopus laevis histone octamer with H2B(S53C) (Xenopus laevis).
Assay [2] addresses 80N0 Widom 601 nucleosome with 2 bp DNA mismatches at both SHL2.7 sites (SHL+/-2.7, 27 bp from the dyad), Xenopus laevis histone octamer with H2B(S53C) (Xenopus laevis).
Assay [3] deals with 80N0 Widom 601 nucleosome with pairs of abasic sites at both SHL2 sites (SHL+/-2, 20 bp from the dyad), Xenopus laevis histone octamer with H2B(S53C) (Xenopus laevis).
For assay [4], the target named is 80N0 Widom 601 nucleosome with 2 bp DNA mismatches at both SHL2 sites (SHL+/-2, 20 bp from the dyad), Xenopus laevis histone octamer with H2B(S53C) (Xenopus laevis).
The target of assay [5] is 80N0 nucleosome, canonical Widom 601 DNA, Xenopus laevis histone octamer with H2B(S53C) (Xenopus laevis).

pKd: −log10 of the molar value.

As to “Chd1 chromatin remodeler (from UniProt P32657 1-1468) (enzyme)”, the pKd (in general, the Kd on a negative log10 scale, so that one unit is a factor of ten) in assay [1] is 7.17; in assay [2], 7.65; in assay [3] it was 5.00; in assay [4], 6.35; in assay [5], 7.62.
